Results taken from US9383360B2, “Compositions and methods relating to lyme disease” (The United States of America, as represented by the …, priority 2012, dated 2016).

Legend:
[1] = system: Aggrecan; assay: BbHtrA proteolysis assay, aggrecan substrate; assay type: biochemical, bovine, human; details: SDS-PAGE, silver stain, FIG. 4A
Procedure: For proteolysis assays described in Examples herein, purified protein substrates (200-600 nM) and proteases (100-150 nM) were diluted in assay buffer (50 mM HEPES, pH 7.4, 5 mM CaCl2) and incubated overnight at 37° C. Samples were boiled for 4 minutes to inactivate the proteases. Proteoglycans were deglycosylated by overnight incubation at 37° C. with 0.01 U chondroitinase ABC (Seikagaku). Reactions were stopped by the addition of SDS/PAGE sample buffer, boiled for 4 minutes, and electrophoresed on pre-cast Tris-glycine gels (BioRad). Reaction products were visualized by silver staining.
BbHtrA cleaved recombinant human aggrecan (G1-IGD-G2 domains) within the IGD (FIG. 4A). Cleavage of recombinant aggrecan generated three high molecular weight proteolytic fragments which migrated at ˜110 kd, ˜60 kd and ˜50 kd.
BbHtrA also degraded native, fully glycosylated aggrecan (FIG. 4B, lane 5). Again, this degradation required BbHtrA catalytic activity (FIG. 4B, lane 6). The BbHtrA-generated aggrecan fragments appear to be a doublet, unlike those generated by HtrA1.
Purified proteins were incubated with BbHtrA or BbHtrA^S226A as described herein. HtrA (also known as DegP) proteases belong to the family of serine proteases which contain a highly reactive serine residue in their active site. This serine (Ser210 in DegP) is part of the canonical His-Ser-Asp catalytic triad and mutation of the catalytic serine abolishes proteolytic activity (Skorko-Glonek et al., 1995). In BbHtrA, residues His119, Ser226 and Asp149 form the catalytic triad and mutation of serine 226 to alanine abolished proteolytic activity as expected (FIG. 5).
Reaction products were separated by SDS-PAGE and silver stained. Native collagen II and recombinant tenascin C were not degraded by BbHtrA indicating selectivity for proteoglycans, E-cadherin and fibronectin. FIG. 5 is an image of SDS-PAGE analysis showing that BbHtrA degrades aggrecan, neurocan, versican, brevican, biglycan, decorin, E-cadherin, and casein.

[2] = system: chondrocyte aggregate cultures; assay: Chondrocyte cytokine induction assay (Proteome Profiler Cytokine Arrays); assay type: cell-based, human
From the text: Chondrocyte aggregate cultures are used which form an extensive extracellular matrix with components characteristic of articular cartilage including aggrecan and type II collagen as described in Welter, J. et al, BioTechniques, 2007, 42(6):732-737; and Solchaga, L. A. et al., Chondrogenic Differentiation of Bone Marrow-Derived Mesenchymal Stem Cells: Tips and Tricks, 2011, 698:253-278.
To form the chondrocyte aggregate cultures, lx10^6 human mesenchymal stem cells (passage one, Lonza, catalog #PT-2501) were plated in a T150 flask (Corning) and cultured in growth media: mesenchymal stem cell basal media (MSCBM, Lonza, #PT-3238), mesenchymal growth supplements (SingleQuots, Lonza, #PT-4105), and 5 ng/ml recombinant human […] (Shenandoah Biotechnology). When confluent, cells were trypsin-released (0.5% trypsin EDTA, Gibco), expanded to two T150 flasks and fed with growth media every three days. When confluent, cells were harvested, resuspended in fresh growth media containing 5% DMSO and aliquots of 1×10^6 cells were cryopreserved in liquid nitrogen.
Human mesenchymal stem cells were used to promote chondrogenesis and chondrocyte aggregate formation for use in these studies. Two vials of passage three cryopreserved cells were thawed, plated in growth media in two T150 flasks and then expanded to six T150 flasks as above. Cells were harvested (0.5% trypsin EDTA, Gibco), pooled, enumerated and induced to chondrogenic differentiation as follows. Cells were resuspended in defined chondrocyte differentiation media: high glucose DMEM (Gibco), 50 μg/ml ascorbic acid-2-phosphate (Sigma), 39.3 ng/ml dexamethasone (Sigma), […] L-proline (Sigma), ITS+Premix (BD Biosciences), 10 ng/ml transforming growth factor β-3 (Shenandoah Biotechnology) and 30 μg/ml gentamicin sulfate+15 ng/ml amphotericin-B (GA-1000, Lonza, #PT-4504E). High density aggregates were obtained by plating, on average, 3×10^5 cells per well in a conical bottom 96 well plate (Thermo Scientific), pelleting by centrifugation (5 minutes at 600 g), and incubation at 37° C. and 5% CO2. Pellets formed coherent spherical aggregates by day two of culture. After seven days, wide bore tips were used to transfer aggregates to V-bottom 96 well plates (Corning). Aggregates were maintained in differentiation media at 37° C. and 5% CO2 for 3-5 weeks and fed every two days until experimentation.
For chondrocyte cytokine induction assays, 24 hours prior to experimentation, dexamethasone containing media was removed, aggregates were rinsed with DPBS (Gibco) and dexamethasone-free differentiation media was added. For experimentation, aggregates were transferred to 24 well plates (24 aggregates per condition), spent media was removed and fresh warmed dexamethasone-free media containing samples was added. Aggregates were then incubated at 37° C. and 5% CO2 for two days.
Recombinant BbHtrA or BbHtrA^S226A was added to culture medium and incubated with chondrocyte aggregate cultures. BbHtrA and BbHtrA^S226A were purified using an E. coli system and was expected to contain endotoxin which would have a stimulatory effect on the chondrocytes. To control for endotoxin contamination (lipopolysaccharide, LPS), an endotoxin removal kit (Noragen) was used to remove the bulk of LPS from recombinant BbHtrAs. The relative toxicity of the amount remaining in the BbHtrA and BbHtrA^S226A samples was determined by a chromogenic Limulus Amoebocyte Lysate (LAL) method (Lonza, Walkersville, Md.). Prior to addition to aggregates, LPS (44 ng, 200 EU), BbHtrA^WT (20 μg, 27.9 EU LPS) and BbHtrA^S226A ([…], 1.99 EU LPS) were incubated in 1 mg/ml polymyxin B sulfate (Sigma) on ice for 30 min with occasional mixing. Warmed dexamethasone-free medium was then added to each test condition to a final volume of 1 ml. Control aggregates were maintained in untreated medium also containing polymyxin B sulfate. The final concentration for all test conditions was 60 μg/ml polymyxin B sulfate. […]

[3] = spent medium of chondrocyte aggregates after 48 hours, cytokine array, background subtracted

B1: BbHtrA^S226A (protein)
chain: MEKKFFSGFLLSFLALSIGFFIGMHYLASNRSNIVFAEEKDNTVRALQDSFREVSKKILPSSVEVHATGVIKQSFPIPFFFFDMPEFDSERKSNWAGSGVIIGRDSQKKSLFYVVTNSHVVDKATELEVVSYDKKKHKAKLIGKDEKKDIALISFESDDATIKVADLGDSDKLEIGDWVMAVGSPFQFSFTVTAGIVSGLQRSANPNLQSRNLFIQTDAAINRGNAGGPLVNIKGEVIGINAWIASNSGGNIGLGFAIPVNNIKSTVDFFLKGKKIESAWLGISFYPLKTRDSEVLKSLGVESNDVSAAIIASLYPGSPAVKSGLRAGDIIMKVNGVSMSVFQDVTSYISDFYAGEKVNVEILRGNVKKNIEIVLAVRPKDKELSSSKMLPGFVVYPLVEDIKAQLNLRNWIKGVVVDYIDKNLASNIKMKSGDVILSVNSKSVSNLREFYDALEVGKNTYKILRGNDSFKITF
modifications: Mutant Borrelia burdorferi HtrA S226A
Cleavage of recombinant human aggrecan (G1-IGD-G2 domains) within the IGD [1]: failed to generate these fragments
Cytokines released by chondrocytes in response ([2]; additional experiments, FIG. 10: BbHtrA^WT, BbHtrA^S226A, LPS, medium alone): IL-8 and CXCL1
GROα/CXCL1 pixel density, Mean [2, 3]: 0.647
I-309/CCL1 pixel density, Mean [2, 3]: 0.163
IL-6 pixel density, Mean [2, 3]: 0.309
IL-8 pixel density, Mean [2, 3]: 1.187
MCP-1/CCL2 pixel density, Mean [2, 3]: 0.050
RANTES/CCL5 pixel density, Mean [2, 3]: 0.265
sICAM-1/CD54 pixel density, Mean [2, 3]: 0.257
